Target: vimentin of SCCVII cells (cell-surface protein of murine squamous cell carcinoma cells and SCCVII tumors in C3H mice) (mouse (murine SCCVII cells)) (UniProt P20152)
Assay: cell-based or functional assay

Sequence of UniProt P20152 (P20152 2-466): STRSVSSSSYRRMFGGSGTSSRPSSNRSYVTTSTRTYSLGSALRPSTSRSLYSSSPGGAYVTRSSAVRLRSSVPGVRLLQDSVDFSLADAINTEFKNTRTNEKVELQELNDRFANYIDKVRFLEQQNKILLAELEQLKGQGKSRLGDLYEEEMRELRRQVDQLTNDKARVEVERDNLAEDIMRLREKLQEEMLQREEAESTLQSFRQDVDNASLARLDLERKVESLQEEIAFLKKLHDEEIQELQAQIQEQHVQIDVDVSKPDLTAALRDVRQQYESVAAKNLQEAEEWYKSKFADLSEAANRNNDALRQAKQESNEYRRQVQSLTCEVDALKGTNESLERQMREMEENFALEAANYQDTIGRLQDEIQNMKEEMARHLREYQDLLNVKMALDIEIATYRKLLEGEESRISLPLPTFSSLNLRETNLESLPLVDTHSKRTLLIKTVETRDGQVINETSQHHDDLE

accumulation of peptide-biotin in SCCVII tumor (positive per field, DAB staining), co-administered with anti-vimentin (positive per field): 1.2
accumulation of peptide-biotin in SCCVII tumor (positive per field, DAB staining), without anti-vimentin (positive per field): 19.6
B1: CHP-biotin (NH2-…-biotin) (peptide)
peptide: H-VNTANSTGG-biotin

From patent publication US20120208770A1
